Laboratory results published in patent publication USRE50282 (KAGOSHIMA UNIVERSITY, dated 2025).
Blank lines part the entries; values can stand above or below the binder they belong to. Bridges are numbered along the chain shown (N, C = ends). Primed or numbered codes have the meaning given here. Where no end group is shown, it is not given here. The star is where a group is joined. DSS = disuccinimidyl suberate, reactive NHS group, O=C(CCCCCCC(=O)*)ON1C(=O)CCC1=O; DSG = disuccinimidyl glutarate, reactive NHS group, O=C(CCCC(=O)*)ON1C(=O)CCC1=O; Biotin = O=C1N[C@H]2[C@H](CS[C@H]2CCCCC(=O)*)N1; PEG4′ = not defined here

How the values were obtained:
human serum albumin = target: T1, human serum albumin (human, UniProt P02768 25-609); assay: covalent labeling reaction, SDS-PAGE and Western blotting with SA-conjugated HRP
T1 construct: also called HSA; HAS

bovine serum albumin = target: T2, bovine serum albumin (bovine, UniProt P02769 25-607); assay: ELISA, BSA used as blocking agent, biotinylated peptide detected with SA-HRP
T2 construct: also called BSA

human IgG Fc = target: T3, human IgG Fc (human, UniProt P01857-1 108-330 = IgG part); assay: X-ray crystallography of the Fc/IgG-binding peptide conjugate
T3 construct: domain: Fc; also called human IgG1 Fc

T2 sequence (P02769 25-607 limits assumed): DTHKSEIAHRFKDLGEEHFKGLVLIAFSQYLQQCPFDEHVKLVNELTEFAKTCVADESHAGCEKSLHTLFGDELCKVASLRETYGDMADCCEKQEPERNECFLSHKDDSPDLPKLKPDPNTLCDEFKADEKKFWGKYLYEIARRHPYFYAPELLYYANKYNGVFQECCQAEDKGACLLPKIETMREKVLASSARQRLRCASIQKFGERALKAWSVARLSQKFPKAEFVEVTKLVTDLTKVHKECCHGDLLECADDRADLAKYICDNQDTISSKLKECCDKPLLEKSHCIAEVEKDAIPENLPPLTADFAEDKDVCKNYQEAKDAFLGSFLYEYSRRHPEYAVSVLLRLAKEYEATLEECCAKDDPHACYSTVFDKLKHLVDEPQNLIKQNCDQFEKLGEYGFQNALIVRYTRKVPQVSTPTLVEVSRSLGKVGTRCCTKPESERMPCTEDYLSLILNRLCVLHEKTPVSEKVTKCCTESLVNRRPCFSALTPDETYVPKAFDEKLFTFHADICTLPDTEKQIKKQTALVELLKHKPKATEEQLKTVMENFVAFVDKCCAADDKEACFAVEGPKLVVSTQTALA

binding result (human serum albumin): no binding
Binder: {Biotin-PEG4′}-GDDCAYHK(DSS)GELVWCTFH-NH2 (disulfide 4-14, also called DSS R8K) [N-terminally biotin-PEG4-added IgG-binding peptide (Type I(R8K)) modified with DSS]
binding result (bovine serum albumin): no binding (tested: molar ratio up to 10)

binding result (human serum albumin): no binding
Binder: {Biotin-PEG4′}-GDDCAYHK(DSG)GELVWCTFH-NH2 (disulfide 4-14, also called labeled reagent peptide) [N-terminally biotin-PEG4-added IgG-binding peptide (Type I(R8K)) modified with DSG]

binding result (human IgG Fc): binds
B1: cyclic homocysteine peptide G(HC)DCAYHRGELVWCT(HC)H-NH2 (peptide)
peptide: GXDCAYHRGELVWCTXH-NH2
modifications: disulfide 4-14, 2-16; not fully specified (residues 2, 16); printed as G(HC)DCAYHRGELVWCT(HC)H-NH2
